From paper PMC5992322 (Cell, 2017)
Blank lines part the entries; values can stand above or below the binder they belong to.

B1: Nup192(2-960) (domain or fragment, S. cerevisiae, UniProt P47054 2-960, looked up)
chain: KWSAIPFQTLYRSIESGEFDFDLFKEVLPDLQNLNLNTDKLKNNASRSQLEKGEIELSDGSTFKVNQEFIFEAISLSDELNLDEIVACELILSGDTTANNGKVQYFLRRQYILQIVSFIVNCFHEDTELYQELIKNGALVSNILSAFKFIHTQLSEIKQQINKAQILENYNALFQQNIKFRRDFLLREYDILSQILYGLVDKGAIMKNKDFILSLLHHVSELDSNDFFIIYYTPAFFHLFASLRVLPDADVKLLHSQFMKDLKDDSIYTKPVKVALIFIFFAYFIGWCKEDPKRRADTMDFKTDVDEPMTSAVELGAIEQILIFAADTSIVEQDKSMELFYDIRSLLERHIPRLIPKQLLDDEKIFSQTTNSTYNPASATDNMSGRGLWNPSYPGMMSTTGTARLNSMPNNVNEYSYTTIVLSDQTQEFFLSSFDDVLQTIITDCAFLLTKIKDAEEDSLLSGEDLTLDDISLKADLERFFLSIYFFYASRPEYSCTFWSDKESNAYGFIEWCSRCNDNLMRSCFYLMVSSLSFGPENALNVYHYFGENSSISWKNIAQCLSDYTKKISNFNSSLHKRQQFSESTHNDIDSTAVALEEGLNEEAVIFLSSLLTLVGSVTYQVDEDVKSSLSKVFSDVLFEFTKINTPLVGAAFKVISNLVPKLESSRTKFWSFLDSLIFKDSSLNYSSESYRNAFTNVLTKYSDVLGFLQLFHNLISIHSRENNSEYMVFGKLAFPTRLGQGYRKVGIWPYFDYIFNDILAHVDQIVDIRNKRAVQLPILKIIYTGLCSFDYSVILNSIPAAANLDALVDCENFFNYVQECPAIPIFNYIFTEKIYKSIFNVVDVGVDQLSIELEGGKNQAELLQLAVKIINKVLDYQETYVEELFPIVKKHGKTDYFLPKNYSLHGLRSFYDAIFFNIPLVAHLGLYVGVDDQILATNSLRILAKLSERSNGSVASLS

Key:
His6-Avitag-MBP-Nup116 = His6-Avitag-MBP-Nup116 (S. cerevisiae, UniProt Q02630 1-1113, biotin on the Avitag); assay: BLI
[1] = target: Nup84-Nup133(521-1157) complex (S. cerevisiae, UniProt P52891 1-726; P36161 521-1157); assay: pull-down
Nup192(2-960) = target: B1; assay: BLI

Chain of Nup84-Nup133(521-1157) complex (P52891 whole entry, chain 1 of 2): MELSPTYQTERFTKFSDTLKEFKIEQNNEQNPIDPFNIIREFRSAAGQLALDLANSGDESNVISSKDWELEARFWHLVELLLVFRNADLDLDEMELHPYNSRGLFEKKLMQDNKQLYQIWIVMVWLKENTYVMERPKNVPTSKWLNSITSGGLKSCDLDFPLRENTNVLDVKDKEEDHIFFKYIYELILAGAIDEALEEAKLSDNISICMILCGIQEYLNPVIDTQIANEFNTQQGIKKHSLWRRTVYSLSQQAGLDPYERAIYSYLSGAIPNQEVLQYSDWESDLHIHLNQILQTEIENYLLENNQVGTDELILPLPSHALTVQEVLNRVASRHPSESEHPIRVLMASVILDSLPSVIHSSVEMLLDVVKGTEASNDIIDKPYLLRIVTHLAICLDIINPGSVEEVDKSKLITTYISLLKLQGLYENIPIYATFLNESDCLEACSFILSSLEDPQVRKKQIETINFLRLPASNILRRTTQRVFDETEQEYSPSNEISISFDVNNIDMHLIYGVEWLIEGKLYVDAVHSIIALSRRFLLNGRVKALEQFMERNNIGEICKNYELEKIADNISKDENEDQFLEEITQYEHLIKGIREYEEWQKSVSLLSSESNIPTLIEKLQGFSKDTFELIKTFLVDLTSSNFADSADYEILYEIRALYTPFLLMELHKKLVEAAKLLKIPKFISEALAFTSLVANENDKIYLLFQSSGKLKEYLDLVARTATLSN
Chain of Nup84-Nup133(521-1157) complex (P36161 521-1157, chain 2 of 2): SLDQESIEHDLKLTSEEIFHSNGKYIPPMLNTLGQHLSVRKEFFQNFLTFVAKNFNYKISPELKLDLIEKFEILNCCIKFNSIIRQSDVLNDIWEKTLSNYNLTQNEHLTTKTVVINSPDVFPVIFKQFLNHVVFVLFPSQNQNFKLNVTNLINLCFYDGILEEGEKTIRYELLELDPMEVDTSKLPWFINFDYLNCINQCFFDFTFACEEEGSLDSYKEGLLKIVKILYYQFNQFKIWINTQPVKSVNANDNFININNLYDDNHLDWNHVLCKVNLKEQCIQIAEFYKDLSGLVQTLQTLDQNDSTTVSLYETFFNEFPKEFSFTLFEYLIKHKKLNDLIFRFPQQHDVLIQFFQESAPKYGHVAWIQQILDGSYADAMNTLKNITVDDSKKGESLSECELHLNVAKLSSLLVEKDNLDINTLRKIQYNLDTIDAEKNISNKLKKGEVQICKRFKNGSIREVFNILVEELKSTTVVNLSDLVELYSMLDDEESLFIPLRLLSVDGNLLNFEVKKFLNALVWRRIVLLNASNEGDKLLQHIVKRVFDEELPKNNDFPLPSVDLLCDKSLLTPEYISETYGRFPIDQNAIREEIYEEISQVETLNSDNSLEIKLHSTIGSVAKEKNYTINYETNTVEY

Binder: B1
KD of the dominant of the two binding modes (His6-Avitag-MBP-Nup116): 500 nM | fold lower KD than with the Nup116 variant lacking the GLFG-repeats (His6-Avitag-MBP-Nup116): ~15 fold

binding result (His6-Avitag-MBP-Nup116): binds
B2: ScKap95 (natural protein, S. cerevisiae, UniProt Q06142 1-861, looked up)
chain: MSTAEFAQLLENSILSPDQNIRLTSETQLKKLSNDNFLQFAGLSSQVLIDENTKLEGRILAALTLKNELVSKDSVKTQQFAQRWITQVSPEAKNQIKTNALTALVSIEPRIANAAAQLIAAIADIELPHGAWPELMKIMVDNTGAEQPENVKRASLLALGYMCESADPQSQALVSSSNNILIAIVQGAQSTETSKAVRLAALNALADSLIFIKNNMEREGERNYLMQVVCEATQAEDIEVQAAAFGCLCKIMSLYYTFMKPYMEQALYALTIATMKSPNDKVASMTVEFWSTICEEEIDIAYELAQFPQSPLQSYNFALSSIKDVVPNLLNLLTRQNEDPEDDDWNVSMSAGACLQLFAQNCGNHILEPVLEFVEQNITADNWRNREAAVMAFGSIMDGPDKVQRTYYVHQALPSILNLMNDQSLQVKETTAWCIGRIADSVAESIDPQQHLPGVVQACLIGLQDHPKVATNCSWTIINLVEQLAEATPSPIYNFYPALVDGLIGAANRIDNEFNARASAFSALTTMVEYATDTVAETSASISTFVMDKLGQTMSVDENQLTLEDAQSLQELQSNILTVLAAVIRKSPSSVEPVADMLMGLFFRLLEKKDSAFIEDDVFYAISALAASLGKGFEKYLETFSPYLLKALNQVDSPVSITAVGFIADISNSLEEDFRRYSDAMMNVLAQMISNPNARRELKPAVLSVFGDIASNIGADFIPYLNDIMALCVAAQNTKPENGTLEALDYQIKVLEAVLDAYVGIVAGLHDKPEALFPYVGTIFQFIAQVAEDPQLYSEDATSRAAVGLIGDIAAMFPDGSIKQFYGQDWVIDYIKRTRSGQLFSQATKDTARWAREQQKRQLSL

binding result [1]: binds
B3: GST-Nup100(1-307) (domain or fragment, S. cerevisiae, UniProt Q02629 1-307, looked up)
chain: MFGNNRPMFGGSNLSFGSNTSSFGGQQSQQPNSLFGNSNNNNNSTSNNAQSGFGGFTSAAGSNSNSLFGNNNTQNNGAFGQSMGATQNSPFGSLNSSNASNGNTFGGSSSMGSFGGNTNNAFNNNSNSTNSPFGFNKPNTGGTLFGSQNNNSAGTSSLFGGQSTSTTGTFGNTGSSFGTGLNGNGSNIFGAGNNSQSNTTGSLFGNQQSSAFGTNNQQGSLFGQQSQNTNNAFGNQNQLGGSSFGSKPVGSGSLFGQSNNTLGNTTNNRNGLFGQMNSSNQGSSNSGLFGQNSMNSSTQGVFGQNNN

binding result (Nup192(2-960)): binds
B4: His6-Avitag-MBP-Nup116(718-1113) (domain or fragment, S. cerevisiae, UniProt Q02630 718-1113, looked up)
chain: SQSMAQSQNALQQQQQQQRLQIQNNNPYGTNELFSKATVTNTVSYPIQPSATKIKADERKKASLTNAYKMIPKTLFTAKLKTNNSVMDKAQIKVDPKLSISIDKKNNQIAISNQQEENLDESILKASELLFNPDKRSFKNLINNRKMLIASEEKNNGSQNNDMNFKSKSEEQETILGKPKMDEKETANGGERMVLSSKNDGEDSATKHHSRNMDEENKENVADLQKQEYSEDDKKAVFADVAEKDASFINENYYISPSLDTLSSYSLLQLRKVPHLVVGHKSYGKIEFLEPVDLAGIPLTSLGGVIITFEPKTCIIYANLPNRPKRGEGINVRARITCFNCYPVDKSTRKPIKDPNHQLVKRHIERLKKNPNSKFESYDADSGTYVFIVNHAAEQT
modifications: biotin on the Avitag

binding result [1]: binds
B5: GST-Nup100(1-610) (domain or fragment, S. cerevisiae, UniProt Q02629 1-610, looked up)
chain: MFGNNRPMFGGSNLSFGSNTSSFGGQQSQQPNSLFGNSNNNNNSTSNNAQSGFGGFTSAAGSNSNSLFGNNNTQNNGAFGQSMGATQNSPFGSLNSSNASNGNTFGGSSSMGSFGGNTNNAFNNNSNSTNSPFGFNKPNTGGTLFGSQNNNSAGTSSLFGGQSTSTTGTFGNTGSSFGTGLNGNGSNIFGAGNNSQSNTTGSLFGNQQSSAFGTNNQQGSLFGQQSQNTNNAFGNQNQLGGSSFGSKPVGSGSLFGQSNNTLGNTTNNRNGLFGQMNSSNQGSSNSGLFGQNSMNSSTQGVFGQNNNQMQINGNNNNSLFGKANTFSNSASGGLFGQNNQQQGSGLFGQNSQTSGSSGLFGQNNQKQPNTFTQSNTGIGLFGQNNNQQQQSTGLFGAKPAGTTGSLFGGNSSTQPNSLFGTTNVPTSNTQSQQGNSLFGATKLTNMPFGGNPTANQSGSGNSLFGTKPASTTGSLFGNNTASTTVPSTNGLFGNNANNSTSTTNTGLFGAKPDSQSKPALGGGLFGNSNSNSSTIGQNKPVFGGTTQNTGLFGATGTNSSAVGSTGKLFGQNNNTLNVGTQNVPPVNNTTQNALLGTTAVPSLQQAPVTN

binding result (His6-Avitag-MBP-Nup116): binds
B6: Nup170(980-1502) (domain or fragment, S. cerevisiae, UniProt P38181 980-1502, looked up)
chain: SIEYTATALQERCGSFCSASDILGFRAIEHLRRAKEIGLRNYDSLNYHLKNATALLEQIVDDLSIEKLKEAVSMMLSVNYYPKSIEFLLNIANSMDKGKLACQYVANGFLENDDRKQYYDKRILVYDLVFDTLIKVDELAEKKQSSKTQNQISISNDDEVKLRQKSYEAALKYNDRLFHYHMYDWLVSQNREEKLLDIETPFILPYLMEKAGSSLKISNILWVYYSRRSKFFESAEILYRLATSNFDITLFERIEFLSRANGFCNSVSPLSQKQRIVQLASRIQDACEVAGIQGDILSLVYTDARIDSAIKDELIKTLDGKILSTSELFNDFAVPLSYHEIALFIFKIADFRDHEVIMAKWDELFQSLRMEFNNTGKKEDSMNFINLLSNVLIKIGKNVQDSEFIFPIFELFPIVCNFFYETLPKEHIVSGSIVSIFITAGVSFNKMYYILKELIETSDSDNSVFNKEMTWLIHEWYKSDRKFRDIISYNDIIHLKEYKIDNDPIEKYVKNSGNNLGICFYKE

binding result [1]: binds
B7: GST-Nup116(348-458) (domain or fragment, S. cerevisiae, UniProt Q02630 348-458, looked up)
chain: GALFGAKPASGGLFGQSAGSKAFGMNTNPTGTTGGLFGQTNQQQSGGGLFGQQQNSNAGGLFGQNNQSQNQSGLFGQQNSSNAFGQPQQQGGLFGSKPAGGLFGQQQGAST
